One assay has as its target T1, Murine Jag2-DSL-EGF1-4 (mouse, UniProt Q9QYE5 27-388).
T1 construct: also called murine Jagged2; Mouse Jag2
T1 sequence: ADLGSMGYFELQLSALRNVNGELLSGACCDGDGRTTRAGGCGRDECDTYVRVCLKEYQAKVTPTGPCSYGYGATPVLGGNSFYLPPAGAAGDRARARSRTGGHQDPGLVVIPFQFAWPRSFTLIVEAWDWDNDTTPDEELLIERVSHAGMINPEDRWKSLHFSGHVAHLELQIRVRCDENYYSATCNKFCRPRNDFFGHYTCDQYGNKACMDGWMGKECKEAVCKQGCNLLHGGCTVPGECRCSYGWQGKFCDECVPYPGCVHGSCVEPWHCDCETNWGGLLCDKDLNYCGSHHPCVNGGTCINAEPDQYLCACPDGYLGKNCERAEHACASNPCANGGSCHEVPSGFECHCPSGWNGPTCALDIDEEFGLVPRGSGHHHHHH
In words: SPR (BIAcore-3000), IgG captured, Jag DSL-EGF1-4 as analyte.

Another assay has as its target T2, Human Jag2-DSL-EGF1-4 (human, UniProt Q9Y219 24-388).
T2 construct: also called human Jagged2; hJag2
T2 sequence: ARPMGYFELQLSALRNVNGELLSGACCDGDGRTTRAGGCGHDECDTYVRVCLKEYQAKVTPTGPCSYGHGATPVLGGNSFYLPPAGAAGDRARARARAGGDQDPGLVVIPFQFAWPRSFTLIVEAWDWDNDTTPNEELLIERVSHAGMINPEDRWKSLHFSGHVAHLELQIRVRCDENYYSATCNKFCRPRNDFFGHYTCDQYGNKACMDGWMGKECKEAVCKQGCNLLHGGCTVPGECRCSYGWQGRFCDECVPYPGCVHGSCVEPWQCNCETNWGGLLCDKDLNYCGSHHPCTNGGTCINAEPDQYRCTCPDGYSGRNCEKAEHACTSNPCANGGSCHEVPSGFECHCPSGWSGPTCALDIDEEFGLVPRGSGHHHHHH
In words: ELISA on human Jagged2 (Jag-2 bars), OD450 nm.

The next assay concerns the target T3, Human Jag1-DSL-EGF1-4 (human, UniProt P78504 34-377).
T3 construct: Secreted protein from BEVS cells; also called human Jagged1; hJag1; not shown: TEV protease cleavage site and 6-His tag at the C-terminus
In words: SPR (BIAcore-3000), IgG captured, Jag DSL-EGF1-4 as analyte, 25 C.

The next assay deals with T4, Murine Jag1-DSL-EGF1-4 (mouse, UniProt Q9QXX0 34-377).
T4 construct: also called murine Jagged1; mouse Jagged1
In words: ELISA (screening, FIG. 8).

One molecule from patent US20150252117A1 (Genentech, published 2015) can be followed below.

Protocol for Human Jag1-DSL-EGF1-4: (§1) Binding affinities of anti-Jagged1 phage antibodies were measured by Surface Plasmon Resonance (SRP) using a BIAcore™-3000 instrument. Anti-Jagged1/2 phage human IgGs were captured by mouse anti-human IgG coated on the CM5 sensor chip to achieve approximately 150 response units (RU). […] Association rates (kₒₙ) and dissociation rates (koff) were calculated using a simple one-to-one Langmuir binding model (BIAcore Evaluation Software version 3.2). The equilibrium dissociation constant (kd) was calculated as the ratio koff/kₒₙ.
Protocol for Murine Jag2-DSL-EGF1-4: as §1

B1: Antibody A (antibody, human IgG1, V domains shown)
VH: EVQLVESGGGLVQPGGSLRLSCAASGFTFSNYGIHWVRQAPGKGLEWVGWITPDGGYTDYADSVKGRFTISADTSKNTAYLQMNSLRAEDTAVYYCARAGSWFAYWGQGTLVTVSS
VL: DIQMTQSPSSLSASVGDRVTITCRASQDVSTAVAWYQQKPGKAPKLLIYSASFLYSGVPSRFSGSGSGTDFTLTISSLQPEDFATYYCQQSYTTPPTFGQGTKVEIK
notes: Only the variable domains are tied to the tested antibody; also called parent antibody A; anti-Jagged1 antibody A
In the case of B1, the binding result with Murine Jag2-DSL-EGF1-4 was “no binding (tested: 0.5 µM)”. For the same molecule, the binding result in the assay with Human Jag2-DSL-EGF1-4 was “no binding”. In the assay with Human Jag1-DSL-EGF1-4, this molecule displayed a Kd of 94 nM, a koff of 0.0021 s⁻¹ and a kon of 23000 M⁻¹ s⁻¹. Also, the binding result with Murine Jag1-DSL-EGF1-4 is listed as “binds”.
